Earlier results on one substance are cited in paper PMC3159028.

For the series, the target named is Ndel1 58-169 (Homo sapiens) (UniProt Q9GZM8).
Ndel1 58-169 (Homo sapiens), sequence (Q9GZM8 58-169): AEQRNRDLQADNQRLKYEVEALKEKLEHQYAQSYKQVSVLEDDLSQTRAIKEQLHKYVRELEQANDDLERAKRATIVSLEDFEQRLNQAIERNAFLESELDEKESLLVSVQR

Lis1, sequence (P43034 whole entry): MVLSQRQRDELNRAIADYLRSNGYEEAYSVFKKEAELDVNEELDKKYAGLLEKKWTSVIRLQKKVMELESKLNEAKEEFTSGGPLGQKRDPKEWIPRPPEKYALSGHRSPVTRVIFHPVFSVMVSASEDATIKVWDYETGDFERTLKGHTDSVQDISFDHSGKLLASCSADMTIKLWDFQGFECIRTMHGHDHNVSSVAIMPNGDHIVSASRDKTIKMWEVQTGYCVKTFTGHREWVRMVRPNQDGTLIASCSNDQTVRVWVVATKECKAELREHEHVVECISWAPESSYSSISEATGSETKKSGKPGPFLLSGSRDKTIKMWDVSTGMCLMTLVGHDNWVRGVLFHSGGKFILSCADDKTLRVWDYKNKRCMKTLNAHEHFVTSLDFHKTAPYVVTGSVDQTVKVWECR

A word on the Kd: it is the equilibrium constant for the complex coming apart. With Lis1 (from UniProt P43034), the dissociation constant Kd was 300 nM.
